Target: CagV (Helicobacter pylori (endogenous in strain 26695))
Assay: cross-linking; 5 mM DSP added to wild‐type H. pylori extract (0.1% DDM, 0.2% sarcosine) on ice for 25 min; SDS/PAGE and western blot with anti‐CagV antibody (mice); ΔcagV extract as control

In the case of CagV (natural protein), the stoichiometry N was 2.
